Laboratory results published in patent US20030232009A1.
Changes are numbered by the printed parent chain.

B1: antibody in the supernatant of B cell culture well 170B8 (antibody, V domains shown)
VH: AVQLLESGGGLIQPGGSLRLSCAASGFTFSSYAMSWVRQAPGKGLEWVSAISGSGGSTFYADSVRGRFTISRDNSKNTLYLQMNSLRVEDTAVYYCAKEVMGPIFFDYWGQGTLVTVSS
VL: EIVLTQSPGTLSLSPGERATLSCRASQSIISSALAWYQQKPGQAPRLLIYGASSRATGIPDRFSGSGSGTDFTLTISRLEPEDFAVYHCQQYGSTPLTFGGGTKVEIK
B2: antibody in the supernatant of B cell culture well 250F2 (antibody, V domains shown)
VH: QVQLVESGGDLVKPGGSLRLSCAASGFSFSGYYLSWIRQAPGKGLEWVSYISLSGSFIKYADSVKGRFTISRDNAKKTLHLQMNSLRAEDTAVYYCARRTGTTTVFDYWGQGTLVTVSS
VL: EVVMTQSPATLSVSPGERATLSCRASQSVNSNLAWYQQRPGQAPRLLIYGASTRVTGIPARFSGSGSGTEFTLTISSLQSEDFAVYYCQQYNNWPLTFGGGTKVEIK
B3: antibody in the supernatant of B cell culture well 283B2 (antibody, V domains shown)
VH: QVQLVESGGGLVKPGGSLRLSCAASGFTFNVYYMNWIRQAPGKGLEWVSYISTSSSAIYYADSVKGRFTISRDNAKNSLYLQMNSLRAEDTAVYYCARRTGSTTVFDYWGQGTLVTVSS
VL: B2 VL with V2I, M4L, V29I, S31N, R39K, V55A, R61K, D82N, N93K

Target: Human 20.2 + 18mer
Test: ELISA, well supernatant on coated peptides

| Binder | ELISA reading |
| --- | --- |
| B1 | 1.7 |
| B2 | 0.4 |
| B3 | 0.5 |
